Biological target: T1, full length extracellular domain of human CD73 linked to a His tag (human, UniProt P21589 27-547, glycosylated)
T1 construct: 27-553 is 27-547 plus that tag; also called hCD73-his; CD73-his
T1 sequence: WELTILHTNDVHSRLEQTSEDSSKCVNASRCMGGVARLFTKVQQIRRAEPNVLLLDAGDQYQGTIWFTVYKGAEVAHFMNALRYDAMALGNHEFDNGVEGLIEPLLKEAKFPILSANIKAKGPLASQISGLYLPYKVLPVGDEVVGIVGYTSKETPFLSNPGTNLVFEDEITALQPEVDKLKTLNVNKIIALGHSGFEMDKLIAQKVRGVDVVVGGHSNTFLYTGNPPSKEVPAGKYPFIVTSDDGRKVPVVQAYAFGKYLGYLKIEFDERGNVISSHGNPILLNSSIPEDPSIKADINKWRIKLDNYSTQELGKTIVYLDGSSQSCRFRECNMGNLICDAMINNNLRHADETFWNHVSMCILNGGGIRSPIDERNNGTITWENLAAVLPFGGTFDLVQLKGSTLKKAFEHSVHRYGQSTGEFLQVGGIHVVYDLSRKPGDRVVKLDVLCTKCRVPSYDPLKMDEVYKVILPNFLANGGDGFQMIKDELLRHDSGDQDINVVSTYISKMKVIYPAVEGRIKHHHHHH
Test: SEC-MALS, equimolar mix 5.5 uM mAb + 5.5 uM hCD73-his, peak area
Description: The oligomeric state of CD73/antibody complexes were examined by size-exclusion chromatography coupled to an in-line multi-angle light scattering detector (SEC-MALS). Isocratic separations were performed on a Shodex PROTEIN KW-803 column connected to an Prominence Shimadzu UFLC in buffer containing 200 mM K2HPO4, 150 mM NaCl, pH 6.8, containing 0.02% Na azide (0.1 μm filtered) running at 0.5 mL/min. Samples were injected onto the column using a SIL-20AC Prominence Shimadzu autosampler, and data were obtained from three online detectors connected in series: a Prominence SPD-20AD diode array UV/vis spectrophotometer followed by a Wyatt miniDAWN™ TREOS Multi-Angle Light Scattering Detector then a Wyatt Optilab T-rEX Refractive Index Detector. Data were collected and analyzed using Astra (Wyatt) and Labsolutions (Shimadzu) software.
CD73.4 antibodies having the heavy chain constant regions set forth in Table 26 were also tested for formation of high molecular weight complexes by SEC-MALS and DLS experiments, as described in Example 11.

B1: CD73.4-IgG2-C219S (antibody)
heavy: QVQLVESGGGVVQPGRSLRLSCAASGFTFSNYGMHWVRQAPGKGLEWVAVILYDGSNKYYPDSVKGRFTISRDNSKNTLYLQMNSLRAEDTAVYYCARGGSSWYPDSFDIWGQGTMVTVSSASTKGPSVFPLAPCSRSTSESTAALGCLVKDYFPEPVTVSWNSGALTSGVHTFPAVLQSSGLYSLSSVVTVPSSNFGTQTYTCNVDHKPSNTKVDKTVERKSCVECPPCPAPPVAGPSVFLFPPKPKDTLMISRTPEVTCVVVDVSHEDPEVQFNWYVDGVEVHNAKTKPREEQFNSTFRVVSVLTVVHQDWLNGKEYKCKVSNKGLPAPIEKTISKTKGQPREPQVYTLPPSREEMTKNQVSLTCLVKGFYPSDIAVEWESNGQPENNYKTTPPMLDSDGSFFLYSKLTVDKSRWQQGNVFSCSVMHEALHNHYTQKSLSLSPG
light: not shown
notes: also called CD73.4-IgG2CS; CD73.4-IgG2.3
B1 was tested, and the “UV % Peak1 <12.9 min (complexes larger than 4:4 hCD73-his:mAb)” value was 37%.

From patent US20230051701A1 (Bristol-Myers Squibb, published 2023)
